Patent US7589065

How the values were obtained:
Ala-Ala-Tyr-Ala-Ala = tested on: T1, Ala-Ala-Tyr-Ala-Ala
T1 sequence: AAYAA

DnaK (Escherichia coli) = DnaK (Escherichia coli) (UniProt P0A6Y8); assay: cell-based or functional assay
Chain of DnaK (Escherichia coli) (P0A6Y8 2-638 limits assumed): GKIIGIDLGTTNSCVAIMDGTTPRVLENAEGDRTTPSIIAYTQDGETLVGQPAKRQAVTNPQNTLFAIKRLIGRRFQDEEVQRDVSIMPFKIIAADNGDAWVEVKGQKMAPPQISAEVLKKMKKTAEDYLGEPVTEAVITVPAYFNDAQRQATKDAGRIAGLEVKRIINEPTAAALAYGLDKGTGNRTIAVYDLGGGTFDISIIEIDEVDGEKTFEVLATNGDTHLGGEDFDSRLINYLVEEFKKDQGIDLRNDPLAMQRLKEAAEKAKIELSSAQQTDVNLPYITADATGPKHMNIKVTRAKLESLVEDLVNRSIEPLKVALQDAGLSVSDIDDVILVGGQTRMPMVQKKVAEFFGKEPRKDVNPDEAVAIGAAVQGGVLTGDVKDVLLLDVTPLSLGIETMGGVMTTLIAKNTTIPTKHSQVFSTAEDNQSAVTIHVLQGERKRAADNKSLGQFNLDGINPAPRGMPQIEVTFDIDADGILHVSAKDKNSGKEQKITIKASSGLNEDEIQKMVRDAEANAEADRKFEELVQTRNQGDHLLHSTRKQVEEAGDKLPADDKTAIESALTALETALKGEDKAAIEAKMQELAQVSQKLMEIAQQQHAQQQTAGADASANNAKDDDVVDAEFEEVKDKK

| Substance | relative intensity of the cross signal of the Ala-Tyr peptide bond (no addition: 3.50 ± 0.51) (relative intensity) (Ala-Ala-Tyr-Ala-Ala) | relative intensity of the cross signal of the Tyr-Ala peptide bond (no addition: 3.89 ± 0.32) (relative intensity) (Ala-Ala-Tyr-Ala-Ala) | IC50 of the inhibition of the APIase activity of DnaK (spectrophotometric Ala-Leu assay) (DnaK (Escherichia coli)) [µM] |
| --- | --- | --- | --- |
| FKBP12 | 3.94 | 2.68 | – |
| substance P (peptide) | – | – | 76 |
